The record followed here is PMC3416805.

This experiment addresses endogenous ASR1 from tomato fruit nuclei (tomato (endogenous in tomato fruit)) (UniProt Q08655). As to the kind of experiment: cross-linking; formaldehyde crosslinking of ground tomato fruit pericarp, nuclei purified, nuclear proteins passed over a Ni2+ column, SDS-PAGE and immunoblot with anti-ASR1 antiserum.

Several values for one entry are separate records, joined by “and”; a condition that tells them apart may be missing. Identical values can stand only once.

Take “endogenous ASR1 from tomato fruit nuclei (from UniProt Q08655 1-115) (natural protein)”: the percent of nuclear ASR1 in a monomeric form was greater than 90%; the stoichiometry N was 2 and 3.
